B1: 30-bp duplex 30A/30C (EMSA) (dsDNA)
DNA 1: CCCCTATCCTTTCCGCGTCCTTACTTCCCC
DNA 2: GGGGAAGTAAGGACGCGGAAAGGATAGGGG
B2: 30-bp duplex 30A/30C, fluorescein (polarization) (dsDNA)
DNA 1: B1 DNA 1
DNA 2: B1 DNA 2

Experiments:
[1] = biological target: Ku70/Ku80 C493A (human, UniProt P12956;P13010 1-609;1-732, C493A); experiment: EMSA; reduced; near wild type; 50 mM Tris-HCl pH 7.8, 10 mM MgCl2, 50 mM NaCl (FP: plus 1 mM DTT, 0.5 ml; EMSA: 20 μl, 500 fmol DNA); oxidation 2 mM diamide 15 min on ice, re-reduction 5 mM DTT 15 min on ice; binding temperature not stated; conditions: protein: recombinant; tags: His6 on Ku70; copies: 1;1; label: 32P; blunt
Chain of Ku70/Ku80 C493A (P12956 whole entry, chain 1 of 2): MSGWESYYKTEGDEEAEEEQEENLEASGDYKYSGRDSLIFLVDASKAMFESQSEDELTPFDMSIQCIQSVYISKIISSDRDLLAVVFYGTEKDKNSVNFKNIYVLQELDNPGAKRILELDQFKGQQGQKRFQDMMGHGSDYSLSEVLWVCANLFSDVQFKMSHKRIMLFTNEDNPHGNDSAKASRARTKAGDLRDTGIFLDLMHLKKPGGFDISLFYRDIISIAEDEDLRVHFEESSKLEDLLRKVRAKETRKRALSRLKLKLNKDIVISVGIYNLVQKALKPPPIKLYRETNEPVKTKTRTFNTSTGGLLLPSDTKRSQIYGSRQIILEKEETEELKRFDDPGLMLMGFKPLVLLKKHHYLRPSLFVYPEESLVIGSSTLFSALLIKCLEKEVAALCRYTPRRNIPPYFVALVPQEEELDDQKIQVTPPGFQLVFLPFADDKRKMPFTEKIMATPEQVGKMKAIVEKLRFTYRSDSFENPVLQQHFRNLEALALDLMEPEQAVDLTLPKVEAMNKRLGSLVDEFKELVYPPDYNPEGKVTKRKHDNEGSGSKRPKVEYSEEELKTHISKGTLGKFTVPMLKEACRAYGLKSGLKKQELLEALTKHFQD
Chain of Ku70/Ku80 C493A (P13010 whole entry C493A, chain 2 of 2): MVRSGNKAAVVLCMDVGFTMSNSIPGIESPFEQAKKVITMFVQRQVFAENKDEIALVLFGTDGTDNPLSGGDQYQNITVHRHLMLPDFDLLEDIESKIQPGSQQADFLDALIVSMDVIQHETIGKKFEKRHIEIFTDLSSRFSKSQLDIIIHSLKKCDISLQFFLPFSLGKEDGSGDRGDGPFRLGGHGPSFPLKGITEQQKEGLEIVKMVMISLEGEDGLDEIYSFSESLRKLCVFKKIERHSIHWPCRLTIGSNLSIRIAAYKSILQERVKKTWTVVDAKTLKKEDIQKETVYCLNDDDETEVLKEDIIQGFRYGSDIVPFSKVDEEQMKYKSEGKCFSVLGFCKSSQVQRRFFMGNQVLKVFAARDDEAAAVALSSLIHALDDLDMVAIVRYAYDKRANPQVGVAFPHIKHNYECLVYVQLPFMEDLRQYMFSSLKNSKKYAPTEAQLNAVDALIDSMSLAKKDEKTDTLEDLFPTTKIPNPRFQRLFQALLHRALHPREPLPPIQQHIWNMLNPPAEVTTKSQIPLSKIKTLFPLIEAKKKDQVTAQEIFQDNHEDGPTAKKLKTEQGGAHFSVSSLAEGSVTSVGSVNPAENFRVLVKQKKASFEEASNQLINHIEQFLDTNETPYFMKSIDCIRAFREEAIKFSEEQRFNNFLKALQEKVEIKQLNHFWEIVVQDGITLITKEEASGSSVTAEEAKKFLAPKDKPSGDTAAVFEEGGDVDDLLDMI

[2] = biological target: Ku70/Ku80 C493S (human, UniProt P12956;P13010 1-609;1-732, C493S); experiment: EMSA; reduced; similar to wild type (data not shown); 50 mM Tris-HCl pH 7.8, 10 mM MgCl2, 50 mM NaCl (FP: plus 1 mM DTT, 0.5 ml; EMSA: 20 μl, 500 fmol DNA); oxidation 2 mM diamide 15 min on ice, re-reduction 5 mM DTT 15 min on ice; binding temperature not stated; conditions: protein: recombinant; tags: His6 on Ku70; copies: 1;1; label: 32P; blunt
Chain of Ku70/Ku80 C493S (P12956 whole entry, chain 1 of 2): as the sequence (P12956 whole entry, chain 1 of 2) above
Chain of Ku70/Ku80 C493S (P13010 whole entry C493S, chain 2 of 2): as the sequence (P13010 whole entry C493A, chain 2 of 2) above, with A493S counted along it

[3] = biological target: T1, Ku70/80ΔC (human, UniProt P12956;P13010 1-609;1-548); experiment: EMSA; reduced (control), 10 mM Mg2+, probably nM; 50 mM Tris-HCl pH 7.8, 10 mM MgCl2, 50 mM NaCl (FP: plus 1 mM DTT, 0.5 ml; EMSA: 20 μl, 500 fmol DNA); oxidation 2 mM diamide 15 min on ice, re-reduction 5 mM DTT 15 min on ice; binding temperature not stated; conditions: protein: recombinant; tags: His6 on Ku70; N-terminal His6 (pRSET B) also on Ku80ΔC per Methods; copies: 1;1; label: 32P; blunt
T1 sequence (P12956 whole entry, stated change not applied, chain 1 of 2): as the sequence (P12956 whole entry, chain 1 of 2) above
T1 sequence (P13010 1-548, stated change not applied, chain 2 of 2): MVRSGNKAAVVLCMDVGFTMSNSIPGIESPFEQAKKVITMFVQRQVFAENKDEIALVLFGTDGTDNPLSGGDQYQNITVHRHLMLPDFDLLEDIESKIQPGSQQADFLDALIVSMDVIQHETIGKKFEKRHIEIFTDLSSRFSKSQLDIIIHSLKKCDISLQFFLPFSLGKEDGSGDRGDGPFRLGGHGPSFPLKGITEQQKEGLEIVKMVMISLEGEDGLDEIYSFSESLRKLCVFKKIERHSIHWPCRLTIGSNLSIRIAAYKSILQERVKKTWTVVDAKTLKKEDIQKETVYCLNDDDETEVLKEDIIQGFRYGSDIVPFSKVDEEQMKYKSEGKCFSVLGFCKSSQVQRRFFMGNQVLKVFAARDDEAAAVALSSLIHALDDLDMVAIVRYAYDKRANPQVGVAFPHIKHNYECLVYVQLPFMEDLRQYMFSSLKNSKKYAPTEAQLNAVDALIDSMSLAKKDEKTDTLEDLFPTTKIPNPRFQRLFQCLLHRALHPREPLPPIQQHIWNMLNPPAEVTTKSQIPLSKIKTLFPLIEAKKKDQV

[4] = biological target: T2, Ku70/Ku80 heterodimer, wild type (human, UniProt P12956;P13010 1-609;1-732); experiment: EMSA; reduced (control), 10 mM Mg2+, titration was 0-150 nM so probably nM; 50 mM Tris-HCl pH 7.8, 10 mM MgCl2, 50 mM NaCl (FP: plus 1 mM DTT, 0.5 ml; EMSA: 20 μl, 500 fmol DNA); oxidation 2 mM diamide 15 min on ice, re-reduction 5 mM DTT 15 min on ice; binding temperature not stated; conditions: protein: recombinant; tags: His6 on Ku70; copies: 1;1; label: 32P; blunt
T2 sequence (P12956 whole entry, chain 1 of 2): as the sequence (P12956 whole entry, chain 1 of 2) above
T2 sequence (P13010 whole entry, chain 2 of 2): as the sequence (P13010 whole entry C493A, chain 2 of 2) above, with A493C counted along it

[5] = biological target: T2, Ku70/Ku80 heterodimer, wild type; experiment: fluorescence polarization; reduced (control), 1 mM DTT, 10 mM Mg2+, probably nM; 50 mM Tris-HCl pH 7.8, 10 mM MgCl2, 50 mM NaCl (FP: plus 1 mM DTT, 0.5 ml; EMSA: 20 μl, 500 fmol DNA); oxidation 2 mM diamide 15 min on ice, re-reduction 5 mM DTT 15 min on ice; binding temperature not stated; conditions: protein: recombinant; tags: His6 on Ku70; copies: 1;1; blunt
[6] = biological target: T1, Ku70/80ΔC; experiment: as above; conditions: protein: recombinant; tags: His6 on Ku70; N-terminal His6 (pRSET B) also on Ku80ΔC per Methods; copies: 1;1; blunt
[7] = biological target: T2, Ku70/Ku80 heterodimer, wild type; experiment: fluorescence polarization; re-reduced: 2 mM diamide then 5 mM DTT, probably nM; 50 mM Tris-HCl pH 7.8, 10 mM MgCl2, 50 mM NaCl (FP: plus 1 mM DTT, 0.5 ml; EMSA: 20 μl, 500 fmol DNA); oxidation 2 mM diamide 15 min on ice, re-reduction 5 mM DTT 15 min on ice; binding temperature not stated; conditions: protein: recombinant; tags: His6 on Ku70; copies: 1;1; blunt

Binder	binding result [1]	binding result [2]	Kd [3]	Kd [4]	Kd [5]	Kd [6]	Kd [7]
B1	binds	binds	51 ± 7.7 nM	29.7 ± 2.5 nM	–	–	–
B2	–	–	–	–	25.8 ± 2.3 nM	25.7 ± 1.5 nM	31.4 ± 3 nM
